The assay concerns the target MUC4 protein (endogenous human MUC4 of pancreatic cancer cells and tumor tissue) (human) (UniProt Q99102). Description: flow cytometry, cell-surface staining of paraformaldehyde-fixed unpermeabilized cells (cell line not given), 1 µg antibody/10^6 cells, FITC anti-mouse secondary.

The results in this text go back to patent US20140199242A1.

anti-KLH antibody K2G6 returned an MFI (mean fluorescence intensity) of 14.2.
For anti-MUC4 TR MAb 8G7 (antibody), the MFI (mean fluorescence intensity) is 23.1.
